The target in assay [1] is C-tail deletion mutant of T7 gp4A' with 17 C-terminal amino acid residues deleted (gp4A' ΔCt) (bacteriophage T7) (UniProt P03692).
Assay [2] has the same target. This is another data set of the same source.
The target of assay [3] is M64L mutant of T7 helicase gp4 (T7 gp4A') (bacteriophage T7) (UniProt P03692).

Substance “Exonuclease deficient mutant of T7 gp5 DNA polymerase (D5A, E7A) complexed with E. coli thioredoxin (from UniProt P00581 1-704; P0AA25 1-109)” showed a fork regression during stalling under torsion (angular optical trap), ΔCt exo- replisome, mean fork position over a minute in assay [1] of 340 bp.

As for “Wild-type T7 gp5 DNA polymerase complexed with E. coli thioredoxin (from UniProt P00581 1-704; P0AA25 1-109)”, the fork regression during stalling under torsion (angular optical trap), ΔCt replisome, mean fork position over a minute in assay [2] came to 240 bp. In assay [3], this substance gave a fork regression during stalling under torsion (angular optical trap), WT replisome, mean fork position over a minute of 80 bp.

The values are drawn from paper PMC12658067.
